Laboratory results: the supplement of paper PMC10567573

B1: PPFIA4 (parent)
chain: YAGNLHESGVHGALLALDENFDHN

Variants of: B1
Assay: protein stability index of a GFP-peptide fusion (GPS, HEK-293T) (PSI 1-6); higher = more stable
Conditions: c terminus: a fixed tail appended
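Further: lentivirally expressed fusions sorted by FACS into six bins by GFP to DsRed ratio, PSI derived from sequencing read proportions per bin multiplied by bin number.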

Variant	protein stability index
YAGNLHTSGVHGALLALDENFDHN [E7T]	2.24
YAGNLHVSGVHGALLALDENFDHN [E7V]	1.93
YAGNLHWSGVHGALLALDENFDHN [E7W]	2.91
YAGNLHYSGVHGALLALDENFDHN [E7Y]	1.85
YAGNLHEAGVHGALLALDENFDHN [S8A]	2.51
YAGNLHECGVHGALLALDENFDHN [S8C]	2.39
YAGNLHEDGVHGALLALDENFDHN [S8D]	3.16
YAGNLHEEGVHGALLALDENFDHN [S8E]	3.28
YAGNLHEFGVHGALLALDENFDHN [S8F]	1.72
YAGNLHEGGVHGALLALDENFDHN [S8G]	2.12
YAGNLHEHGVHGALLALDENFDHN [S8H]	2.11
YAGNLHEIGVHGALLALDENFDHN [S8I]	2.21
YAGNLHEKGVHGALLALDENFDHN [S8K]	2.67
YAGNLHELGVHGALLALDENFDHN [S8L]	1.97
YAGNLHEMGVHGALLALDENFDHN [S8M]	2.19
YAGNLHENGVHGALLALDENFDHN [S8N]	2.33
YAGNLHEPGVHGALLALDENFDHN [S8P]	2.49
YAGNLHEQGVHGALLALDENFDHN [S8Q]	2.71
YAGNLHERGVHGALLALDENFDHN [S8R]	2.02
YAGNLHETGVHGALLALDENFDHN [S8T]	3.26
YAGNLHEVGVHGALLALDENFDHN [S8V]	2.48
YAGNLHEWGVHGALLALDENFDHN [S8W]	1.72
YAGNLHEYGVHGALLALDENFDHN [S8Y]	2.28
YAGNLHESAVHGALLALDENFDHN [G9A]	2.46

Variant	protein stability index
YAGNLHESCVHGALLALDENFDHN [G9C]	2.05
YAGNLHESDVHGALLALDENFDHN [G9D]	3.69
YAGNLHESEVHGALLALDENFDHN [G9E]	3.49
YAGNLHESFVHGALLALDENFDHN [G9F]	1.83
YAGNLHESHVHGALLALDENFDHN [G9H]	2.65
YAGNLHESIVHGALLALDENFDHN [G9I]	1.49
YAGNLHESKVHGALLALDENFDHN [G9K]	2.68
YAGNLHESLVHGALLALDENFDHN [G9L]	2.1
YAGNLHESMVHGALLALDENFDHN [G9M]	3.23
YAGNLHESNVHGALLALDENFDHN [G9N]	3.1
YAGNLHESPVHGALLALDENFDHN [G9P]	3.59
YAGNLHESQVHGALLALDENFDHN [G9Q]	2.82
YAGNLHESRVHGALLALDENFDHN [G9R]	2.31
YAGNLHESSVHGALLALDENFDHN [G9S]	2.63
YAGNLHESTVHGALLALDENFDHN [G9T]	2.9
YAGNLHESVVHGALLALDENFDHN [G9V]	2.98
YAGNLHESWVHGALLALDENFDHN [G9W]	2.94
YAGNLHESYVHGALLALDENFDHN [G9Y]	2.34
YAGNLHESGAHGALLALDENFDHN [V10A]	3.11
YAGNLHESGCHGALLALDENFDHN [V10C]	2.06
YAGNLHESGDHGALLALDENFDHN [V10D]	4.04
YAGNLHESGEHGALLALDENFDHN [V10E]	4.11
YAGNLHESGFHGALLALDENFDHN [V10F]	2.25
YAGNLHESGGHGALLALDENFDHN [V10G]	2.8

Variant	protein stability index
YAGNLHESGHHGALLALDENFDHN [V10H]	2.7
YAGNLHESGIHGALLALDENFDHN [V10I]	2.23
YAGNLHESGKHGALLALDENFDHN [V10K]	2.97
YAGNLHESGLHGALLALDENFDHN [V10L]	2.35
YAGNLHESGMHGALLALDENFDHN [V10M]	1.79
YAGNLHESGNHGALLALDENFDHN [V10N]	3.23
YAGNLHESGPHGALLALDENFDHN [V10P]	2.94
YAGNLHESGQHGALLALDENFDHN [V10Q]	3.19
YAGNLHESGRHGALLALDENFDHN [V10R]	2.79
YAGNLHESGSHGALLALDENFDHN [V10S]	3.09
YAGNLHESGTHGALLALDENFDHN [V10T]	3.09
YAGNLHESGWHGALLALDENFDHN [V10W]	2.73
YAGNLHESGYHGALLALDENFDHN [V10Y]	2.31
YAGNLHESGVAGALLALDENFDHN [H11A]	3.06
YAGNLHESGVCGALLALDENFDHN [H11C]	1.22
YAGNLHESGVDGALLALDENFDHN [H11D]	4.25
YAGNLHESGVEGALLALDENFDHN [H11E]	3.19
YAGNLHESGVFGALLALDENFDHN [H11F]	2.49
YAGNLHESGVGGALLALDENFDHN [H11G]	3.35
YAGNLHESGVIGALLALDENFDHN [H11I]	1.66
YAGNLHESGVKGALLALDENFDHN [H11K]	3.33
YAGNLHESGVLGALLALDENFDHN [H11L]	1.76
YAGNLHESGVMGALLALDENFDHN [H11M]	1.87
YAGNLHESGVNGALLALDENFDHN [H11N]	2.83

Variant	protein stability index
YAGNLHESGVPGALLALDENFDHN [H11P]	2.57
YAGNLHESGVQGALLALDENFDHN [H11Q]	3.59
YAGNLHESGVRGALLALDENFDHN [H11R]	2.46
YAGNLHESGVSGALLALDENFDHN [H11S]	2.9
YAGNLHESGVTGALLALDENFDHN [H11T]	2.59
YAGNLHESGVVGALLALDENFDHN [H11V]	1.88
YAGNLHESGVWGALLALDENFDHN [H11W]	3.06
YAGNLHESGVYGALLALDENFDHN [H11Y]	2.35
YAGNLHESGVHAALLALDENFDHN [G12A]	2.77
YAGNLHESGVHCALLALDENFDHN [G12C]	2.13
YAGNLHESGVHDALLALDENFDHN [G12D]	3.74
YAGNLHESGVHEALLALDENFDHN [G12E]	3.78
YAGNLHESGVHFALLALDENFDHN [G12F]	2.32
YAGNLHESGVHHALLALDENFDHN [G12H]	2.71
YAGNLHESGVHIALLALDENFDHN [G12I]	1.94
YAGNLHESGVHKALLALDENFDHN [G12K]	2.97
YAGNLHESGVHLALLALDENFDHN [G12L]	2.73
YAGNLHESGVHMALLALDENFDHN [G12M]	2.59
YAGNLHESGVHNALLALDENFDHN [G12N]	3.68
YAGNLHESGVHPALLALDENFDHN [G12P]	2.11
YAGNLHESGVHQALLALDENFDHN [G12Q]	3.56
YAGNLHESGVHRALLALDENFDHN [G12R]	2.74
YAGNLHESGVHSALLALDENFDHN [G12S]	3.28
YAGNLHESGVHTALLALDENFDHN [G12T]	3.22

Variant	protein stability index
YAGNLHESGVHVALLALDENFDHN [G12V]	1.95
YAGNLHESGVHWALLALDENFDHN [G12W]	3.02
YAGNLHESGVHYALLALDENFDHN [G12Y]	1.7
YAGNLHESGVHGCLLALDENFDHN [A13C]	2.21
YAGNLHESGVHGDLLALDENFDHN [A13D]	4.32
YAGNLHESGVHGELLALDENFDHN [A13E]	4.13
YAGNLHESGVHGFLLALDENFDHN [A13F]	1.73
YAGNLHESGVHGGLLALDENFDHN [A13G]	2.65
YAGNLHESGVHGHLLALDENFDHN [A13H]	2.67
YAGNLHESGVHGILLALDENFDHN [A13I]	1.86
YAGNLHESGVHGKLLALDENFDHN [A13K]	2.96
YAGNLHESGVHGLLLALDENFDHN [A13L]	2.06
YAGNLHESGVHGMLLALDENFDHN [A13M]	1.49
YAGNLHESGVHGNLLALDENFDHN [A13N]	2.66
YAGNLHESGVHGPLLALDENFDHN [A13P]	2.96
YAGNLHESGVHGQLLALDENFDHN [A13Q]	3.8
YAGNLHESGVHGRLLALDENFDHN [A13R]	2.41
YAGNLHESGVHGSLLALDENFDHN [A13S]	2.33
YAGNLHESGVHGTLLALDENFDHN [A13T]	2.86
YAGNLHESGVHGVLLALDENFDHN [A13V]	2.07
YAGNLHESGVHGWLLALDENFDHN [A13W]	3.04
YAGNLHESGVHGYLLALDENFDHN [A13Y]	3.02
YAGNLHESGVHGAALALDENFDHN [L14A]	3.27
YAGNLHESGVHGACLALDENFDHN [L14C]	2.36

Variant	protein stability index
YAGNLHESGVHGADLALDENFDHN [L14D]	4.59
YAGNLHESGVHGAELALDENFDHN [L14E]	3.83
YAGNLHESGVHGAFLALDENFDHN [L14F]	1.81
YAGNLHESGVHGAGLALDENFDHN [L14G]	3.63
YAGNLHESGVHGAHLALDENFDHN [L14H]	3.8
YAGNLHESGVHGAILALDENFDHN [L14I]	1.97
YAGNLHESGVHGAKLALDENFDHN [L14K]	3.15
YAGNLHESGVHGAMLALDENFDHN [L14M]	3.07
YAGNLHESGVHGANLALDENFDHN [L14N]	3.8
YAGNLHESGVHGAPLALDENFDHN [L14P]	4.03
YAGNLHESGVHGAQLALDENFDHN [L14Q]	4.02
YAGNLHESGVHGARLALDENFDHN [L14R]	3.31
YAGNLHESGVHGASLALDENFDHN [L14S]	3.45
YAGNLHESGVHGATLALDENFDHN [L14T]	3.56
YAGNLHESGVHGAVLALDENFDHN [L14V]	2.16
YAGNLHESGVHGAWLALDENFDHN [L14W]	1.43
YAGNLHESGVHGAYLALDENFDHN [L14Y]	2.47
YAGNLHESGVHGALAALDENFDHN [L15A]	4.13
YAGNLHESGVHGALCALDENFDHN [L15C]	3.06
YAGNLHESGVHGALDALDENFDHN [L15D]	4.06
YAGNLHESGVHGALEALDENFDHN [L15E]	4.23
YAGNLHESGVHGALFALDENFDHN [L15F]	2.2
YAGNLHESGVHGALGALDENFDHN [L15G]	3.54
YAGNLHESGVHGALHALDENFDHN [L15H]	3.31

Variant	protein stability index
YAGNLHESGVHGALIALDENFDHN [L15I]	2.22
YAGNLHESGVHGALKALDENFDHN [L15K]	3.46
YAGNLHESGVHGALMALDENFDHN [L15M]	2.93
YAGNLHESGVHGALNALDENFDHN [L15N]	3.89
YAGNLHESGVHGALPALDENFDHN [L15P]	4.09
YAGNLHESGVHGALQALDENFDHN [L15Q]	3.52
YAGNLHESGVHGALRALDENFDHN [L15R]	2.8
YAGNLHESGVHGALSALDENFDHN [L15S]	3.87
YAGNLHESGVHGALTALDENFDHN [L15T]	3.78
YAGNLHESGVHGALVALDENFDHN [L15V]	3.29
YAGNLHESGVHGALYALDENFDHN [L15Y]	2.31
YAGNLHESGVHGALLCLDENFDHN [A16C]	2.39
YAGNLHESGVHGALLDLDENFDHN [A16D]	3.85
YAGNLHESGVHGALLELDENFDHN [A16E]	4.12
YAGNLHESGVHGALLFLDENFDHN [A16F]	3.06
YAGNLHESGVHGALLGLDENFDHN [A16G]	1.77
YAGNLHESGVHGALLHLDENFDHN [A16H]	3.25
YAGNLHESGVHGALLILDENFDHN [A16I]	1.97
YAGNLHESGVHGALLKLDENFDHN [A16K]	2.73
YAGNLHESGVHGALLLLDENFDHN [A16L]	2.36
YAGNLHESGVHGALLMLDENFDHN [A16M]	2.43
YAGNLHESGVHGALLNLDENFDHN [A16N]	3.23
YAGNLHESGVHGALLPLDENFDHN [A16P]	3.43
YAGNLHESGVHGALLQLDENFDHN [A16Q]	3.31

Variant	protein stability index
YAGNLHESGVHGALLRLDENFDHN [A16R]	2.99
YAGNLHESGVHGALLSLDENFDHN [A16S]	3.2
YAGNLHESGVHGALLTLDENFDHN [A16T]	3.34
YAGNLHESGVHGALLVLDENFDHN [A16V]	2.31
YAGNLHESGVHGALLWLDENFDHN [A16W]	3.58
YAGNLHESGVHGALLYLDENFDHN [A16Y]	2.06
YAGNLHESGVHGALLAADENFDHN [L17A]	3.43
YAGNLHESGVHGALLACDENFDHN [L17C]	3.21
YAGNLHESGVHGALLADDENFDHN [L17D]	4.18
YAGNLHESGVHGALLAEDENFDHN [L17E]	4.52
YAGNLHESGVHGALLAFDENFDHN [L17F]	2.16
YAGNLHESGVHGALLAGDENFDHN [L17G]	3.4
YAGNLHESGVHGALLAHDENFDHN [L17H]	4.06
YAGNLHESGVHGALLAIDENFDHN [L17I]	2.02
YAGNLHESGVHGALLAKDENFDHN [L17K]	3.24
YAGNLHESGVHGALLAMDENFDHN [L17M]	2.96
YAGNLHESGVHGALLANDENFDHN [L17N]	3.86
YAGNLHESGVHGALLAPDENFDHN [L17P]	3.35
YAGNLHESGVHGALLAQDENFDHN [L17Q]	3.37
YAGNLHESGVHGALLARDENFDHN [L17R]	3.31
